The values that follow come from paper PMC3989220.

The target of assay [1] is Glucokinase (GK) cloned from rat hypothalamic tanycyte cultures, recombinant (rat) (UniProt P17712). As to the kind of experiment: enzyme inhibition kinetics (glucose-6-phosphate dehydrogenase-coupled GK activity assay, Segel plot); GK saturation curves with glucose in the presence of 0.1 and 0.2 µM purified GKRP; 200 mM Tris-HCl pH 7.5, 2 mM MgCl2, 1 mM DTT, 1 mM ATP, 0.5 mM NADP+, 37°C, 5 min; Ki from Segel's graph for an allosteric modulator of a cooperative enzyme.

Assay [2] shares this target. The assay is described as above. The source holds these as a separate data set.
Assay [3] shares this target.
For another assay, the target named is GKRP (Rattus norvegicus) (UniProt Q07071). The conditions noted are these: cited from earlier work.

Where two headings read alike, the source gives them in different places.

Sequence of UniProt Q07071 (Q07071 whole entry): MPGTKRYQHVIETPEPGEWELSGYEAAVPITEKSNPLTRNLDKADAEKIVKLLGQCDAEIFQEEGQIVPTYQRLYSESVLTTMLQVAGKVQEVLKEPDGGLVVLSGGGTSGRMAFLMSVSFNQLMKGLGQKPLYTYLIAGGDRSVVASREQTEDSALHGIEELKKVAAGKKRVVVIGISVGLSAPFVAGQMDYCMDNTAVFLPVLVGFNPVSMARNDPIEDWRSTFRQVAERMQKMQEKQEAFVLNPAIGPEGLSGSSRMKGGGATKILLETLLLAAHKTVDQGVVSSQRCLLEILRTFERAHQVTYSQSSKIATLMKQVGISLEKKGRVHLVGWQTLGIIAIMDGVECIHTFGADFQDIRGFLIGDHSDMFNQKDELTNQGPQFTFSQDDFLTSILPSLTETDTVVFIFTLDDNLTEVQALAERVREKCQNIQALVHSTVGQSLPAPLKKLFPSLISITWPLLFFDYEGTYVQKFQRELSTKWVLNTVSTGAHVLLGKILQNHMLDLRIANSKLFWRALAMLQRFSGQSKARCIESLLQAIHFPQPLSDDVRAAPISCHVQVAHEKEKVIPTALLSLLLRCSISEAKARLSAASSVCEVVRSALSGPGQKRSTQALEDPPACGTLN

For orientation: Ki means a measure of affinity in units of concentration, obtained from inhibition or displacement. Consider “Glucokinase regulatory protein (GKRP) cloned from rat hypothalamic tanycyte cultures, recombinant (from UniProt Q07071 1-627) (natural protein)”, for which the results for the Ki in assay [1] and in assay [2] were 210 µM and 0.21 µM, respectively. Moreover, in assay [3], the GK activity (glucose-6-phosphate dehydrogenase-coupled assay) at 5 min with 10 mM glucose and 0.05-0.25 µM GKRP; IC50 by nonlinear extrapolation was 280 µM.

Consider Glucokinase (from UniProt P17712), for which the Ki in the assay with GKRP (Rattus norvegicus) is 1 µM.
